Data as given in patent US20200055939A1 (Genentech, published 2020).

T1: MICA*008 on MEL-JUSO cells (human, UniProt Q29983 24-317)
T1 chain: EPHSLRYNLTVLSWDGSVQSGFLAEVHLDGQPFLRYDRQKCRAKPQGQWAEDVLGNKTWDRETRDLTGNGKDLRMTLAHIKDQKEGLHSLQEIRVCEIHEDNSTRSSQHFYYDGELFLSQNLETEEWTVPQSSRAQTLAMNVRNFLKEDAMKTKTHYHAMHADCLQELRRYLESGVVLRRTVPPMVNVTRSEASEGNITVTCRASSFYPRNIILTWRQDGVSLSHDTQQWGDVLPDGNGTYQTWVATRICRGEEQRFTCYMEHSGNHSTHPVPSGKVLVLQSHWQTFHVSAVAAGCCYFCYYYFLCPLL

T2: huMICA*004 alpha 3-his (human)
T2 construct: whole construct entry: GS, alpha 3 domain, GNS, His8; also called MICA004.His; MICA*004 alpha3 construct
T2 chain: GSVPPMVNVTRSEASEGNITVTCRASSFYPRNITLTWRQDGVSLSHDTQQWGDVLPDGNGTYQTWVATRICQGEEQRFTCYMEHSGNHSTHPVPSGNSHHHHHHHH

T3: huMICA*008 alpha 3-his (human)
T3 construct: whole construct entry: GS, alpha 3 domain (Thr204-Ser297), GNS, His8; also the construct of the FPOP experiment; also called MICA008.His; MICA*008 alpha3 construct
T3 chain: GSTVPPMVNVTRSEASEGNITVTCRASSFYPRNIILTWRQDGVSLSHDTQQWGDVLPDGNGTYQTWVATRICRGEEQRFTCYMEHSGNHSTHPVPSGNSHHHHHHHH

T4: huMICB*005 alpha 3-his (human)
T4 construct: whole construct entry: GS, alpha 3 domain, GNS, His8; also called MICB005.His; MICB*005 alpha3 construct
T4 chain: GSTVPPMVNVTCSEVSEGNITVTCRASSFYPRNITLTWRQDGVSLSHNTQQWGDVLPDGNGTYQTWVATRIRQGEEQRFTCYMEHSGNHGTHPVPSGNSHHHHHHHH

T5: huMICA*002 alpha 3-his (human)
T5 construct: whole construct entry: GS, alpha 3 domain, GNS, His8; also called MICA002.His; MICA*002 alpha3 construct
T5 chain: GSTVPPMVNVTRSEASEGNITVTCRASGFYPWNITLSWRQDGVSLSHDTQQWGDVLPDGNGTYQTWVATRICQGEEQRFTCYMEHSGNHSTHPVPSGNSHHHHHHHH

T6: MICA*008 on MEL-JUSO cells (human, UniProt Q29983 24-317)
T6 chain: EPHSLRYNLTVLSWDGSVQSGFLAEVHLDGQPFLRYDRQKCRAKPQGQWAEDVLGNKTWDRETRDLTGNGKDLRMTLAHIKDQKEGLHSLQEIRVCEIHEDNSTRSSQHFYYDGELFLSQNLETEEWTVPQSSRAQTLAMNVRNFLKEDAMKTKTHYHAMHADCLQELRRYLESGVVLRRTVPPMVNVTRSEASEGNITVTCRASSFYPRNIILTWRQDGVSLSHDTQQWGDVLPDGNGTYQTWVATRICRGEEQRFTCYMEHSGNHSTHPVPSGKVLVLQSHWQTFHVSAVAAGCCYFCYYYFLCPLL

T7: MICB005.His (human MICB*005 alpha 3 domain, His tagged) (human)
T7 construct: also called huMICB*005 alpha 3-his
T7 chain: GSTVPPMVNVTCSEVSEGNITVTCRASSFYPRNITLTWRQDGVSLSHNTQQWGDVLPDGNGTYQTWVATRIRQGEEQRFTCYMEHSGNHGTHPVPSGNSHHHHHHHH


Assays:
[1] = biological target: MICB*005 on HCC1534 cells (human); assay: cell-based or functional assay
[2] = biological target: MICA*004 on HCC1534 cells (human, UniProt Q29983 24-383); assay: cell-based or functional assay
[3] = biological target: T1, MICA*008 on MEL-JUSO cells; assay: cell-based or functional assay
huMICA*004 alpha 3-his = biological target: T2, huMICA*004 alpha 3-his; assay: SPR, Biacore 8K, antibody on Protein A chip
Procedure: (§1) A Protein A sensorchip (GE Healthcare) was used following manufacturer provided protocols to capture humanized anti-MICA/B antibodies. The MICA/B alleles were passed over. Antibody binding was measured to human MICA 002, 004, 008 and MICB 005 alpha 3 domains (His tagged, in-house). Sensograms for binding of MICA/B were recorded using an injection time of 2 minutes with a flow rate of 30 ml/min, at a temperature of 25° C., and with a running buffer of 10 mM HEPES, pH 7.4, 150 mM NaCl, 3mM EDTA, and 0.005% Tween 20. After injection, disassociation of the alpha 3 domain from the antibody was monitored for 10 minutes in running buffer. The surface was regenerated between binding cycles with a 60 ul injection of 10 mM Glycine HCl pH 1.5. […] The data was analyzed using a 1:1 binding model. Sensograms of MICA alleles binding to captured anti-MICA antibody were used to calculate the dissociation constant (Kd).

huMICA*008 alpha 3-his = biological target: T3, huMICA*008 alpha 3-his; assay: SPR, Biacore 8K, antibody on Protein A chip
Procedure: as §1

huMICB*005 alpha 3-his = biological target: T4, huMICB*005 alpha 3-his; assay: SPR, Biacore 8K, antibody on Protein A chip
Procedure: as §1

huMICA*002 alpha 3-his = biological target: T5, huMICA*002 alpha 3-his; assay: SPR, Biacore 8K, antibody on Protein A chip
Procedure: as §1

[4] = biological target: T6, MICA*008 on MEL-JUSO cells; assay: cell-based or functional assay
[5] = biological target: MICA*004 on HCC1534 cells (human, UniProt Q29983 24-383); assay: cell-based or functional assay; remark: listed apart in the source
[6] = biological target: T7, MICB005.His (human MICB*005 alpha 3 …); assay: SPR, antibody captured;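 further: SPR with antibody held by surface-bound anti-Fc while His-tagged alpha three domains flow over, Kd derived by fitting a one-to-one binding model to sensograms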
Wherever % Inhibition is given: test concentration or dose not given here.

Binder	% Inhibition [1] [%]	% Inhibition [2] [%]	% Inhibition [3] [%]	Kd (huMICA*004 alpha 3-his) [nM]	Kd (huMICA*008 alpha 3-his) [nM]	Kd (huMICB*005 alpha 3-his) [nM]	Kd (huMICA*002 alpha 3-his) [nM]	% max inhibition of shedding [4] [%]	% max inhibition of shedding [5] [%]	EC50 of shedding inhibition [5] [µg/mL]	Kd [6] [nM]
3C9.10 (antibody, V domains shown, Mouse hybridoma antibody; constant regions differ by assay (hybridoma mouse IgG, recombinant human IgG1 or mouse IgG2a)) VH: QVQLKESGPGLVAPSQSLSITCTVSGFSLTGSGVNWVRQPPGKGLEWLGMIWGDGNTDYNSALKSRLSISKDNSKSQIFLKMNSLQTDDTARYYCARGAYYGKRWYFDVWGAGTTVTVSS VL: DIQMTQTTSSLSASLGDRVTISCSASQGISNYLNWYQQKPDGTVKLLIYYTSSLHSGVPSRFSGSGSGTDYSLTISNLEPEDIATYYCQQYSKLPPTFGGGTKVEIK	–	–	–	–	–	–	–	< 10	24	50	45
9C9.5.6 (antibody, V domains shown, Mouse hybridoma antibody; constant regions differ by assay) VH: QVQLKESGPGLVAPSQSLSITCTVSGFSLNGQGVNWVRQPPGKGLEWLGMIWGDGSTDYNSALKSRLSISKDNSRSQVFLKMNSLQTDDTARYYCARGAHYGKRWYFDVWGAGTTVTVSS VL: DIQMTQTTSSLSASLGDRVTISCSASQNINNYLNWYQQKPHGTVKLLIYYTSSLPSGVPSRFSGSGSGTDYSLTISNLEPEDIASYYCQQYSKLPPTFGGGTKVEIK	–	–	–	–	–	–	–	< 10	44	3.18	11
13A9v5 (antibody, IgG1, V domains shown, humanized variant of 13A9) VH: EVQLVQSGAEVKKPGSSVKVSCKASGYAFTNYLIEWVRQAPGQGLEWIGAINPGSGATNYNEKFKDRATLTADKSTNTAYMELSSLRSEDTAVYFCARFLGNYFDNWGQGTLVTVSS VL: DIQMTQSPSSLSASVGDRVTITCRASGNIHSYLAWYQQKPGKAPKLLIYYAETLADGVPSRFSGSGSGTDFTLTISSLQPEDFATYYCQQFWTTPYTFGQGTKVEIK	63	9	4	5.52	3.68	3.17	4.27	–	–	–	–
15F11v2 (antibody, IgG1, V domains shown, humanized variant of 15F11) VH: EIQLVQSGAEVKKPGASVKVSCKPSGYAFTSNNIYWVRQAPGQGLEWIGYIDPYIGRIIYNQQFKDRATLTVDKSTSTAYLELSSLRSEDTAVYYCSRSGERSNFDYWGQGTLVTVSS VL: EIVLTQSPATLSLSPGERATLSCSASSSISSNYLHWYQQKPGQAPRLLIYRTSNLASGIPARFSGSGSGTDFTLTISSLEPEDFAVYYCQQGGSLPLTFGQGTKVEIK	35	43	62	2.74	3.17	6.71	5.05	–	–	–	–
15F11v1 (antibody, IgG1, V domains shown, humanized variant of 15F11) VH: EVQLVQSGAEVKKPGASVKVSCKASGYAFTSNNIYWVRQAPGQGLEWIGYIDPYIGRIIYNQQFKDRVTITADTSTSTAYLELSSLRSEDTAVYYCSRSGERSNFDYWGQGTLVTVSS VL: EIVLTQSPATLSLSPGERATLSCSASSSISSNYLHWYQQKPGQAPRLLIYRTSNLASGIPARFSGSGSGTDFTLTISSLEPEDFAVYYCQQGGSLPLTFGQGTKVEIK	43	3	4	5.96	6.52	16.1	12.8	–	–	–	–
15F11v3 (antibody, IgG1, V domains shown, humanized variant of 15F11) VH: EVQLVQSGAEVKKPGASVKVSCKASGYAFTSNNIYWVRQAPGQGLEWIGYIDPYIGRIIYNQQFKDRVTITADTSTSTAYLELSSLRSEDTAVYYCSRSGERSNFDYWGQGTLVTVSS VL: EIVLTQSPATLSLSPGERATLSCSASSSISSNYLHWYQQKPGQSPRLLIYRTSNLASGVPARFSGSGSGTDYTLTISSLEPEDFAVYYCQQGGSLPLTFGQGTKVEIK	-49	39	50	5.7	5.56	14.1	12.7	–	–	–	–

Continued by falling Kd (huMICA*004 alpha 3-his), values first:

% Inhibition [1] [%]	% Inhibition [2] [%]	% Inhibition [3] [%]	Kd (huMICA*004 alpha 3-his) [nM]	Kd (huMICA*008 alpha 3-his) [nM]	Kd (huMICB*005 alpha 3-his) [nM]	Kd (huMICA*002 alpha 3-his) [nM]	% max inhibition of shedding [4] [%]	% max inhibition of shedding [5] [%]	EC50 of shedding inhibition [5] [µg/mL]	Kd [6] [nM]	Binder
42	25	2	4.79	3.85	3.15	4.97	–	–	–	–	13A9v3 (antibody, IgG1, V domains shown, humanized variant of 13A9) VH: EVQLVQSGAEVKKPGASVKVSCKASGYAFTNYLIEWVRQAPGQGLEWIGAINPGSGATNYNEKFKDRVTITADTSTSTAYLELSSLRSEDTAVYYCARFLGNYFDNWGQGTLVTVSS VL: DIQMTQSPSSLSASVGDRVTITCRASGNIHSYLAWYQQKPGKSPKLLVYYAETLADGVPSRFSGSGSGTDYTLTISSLQPEDFATYFCQQFWTTPYTFGQGTKVEIK
58	34	31	3.95	3.72	2.96	1.49	–	–	–	–	6E1.1.12 (antibody, V domains shown, mouse variable domains) VH: QGQMQQSGAELVKPGASVKLSCKTSGFTFSDNYISWLKQKPGQSLEWIAWIYAGTGGSSYNQKFRDKAQLTVDTSSRTAYMQLSSLTTEDSAIYYCARHDYYGTSGAWFAYWGRGTLVTVSA VL: DVLMTQTPLSLPVSLGDQASISCRSSQHIVHSNENTYLEWYLQKPGQSPKLLIYKVSNRFSGVPDRFSGSGSGTDFTLKISRVEAEDLGVYYCFQGSHVPWTFGGGTKVEIK
6	16	8	3.77	2.8	2.45	3.94	–	–	–	–	13A9v6 (antibody, IgG1, V domains shown, humanized variant of 13A9) VH: EVQLVQSGAEVKKPGSSVKVSCKASGYAFTNYLIEWVRQAPGQGLEWIGAINPGSGATNYNEKFKDRATLTADKSTNTAYMELSSLRSEDTAVYFCARFLGNYFDNWGQGTLVTVSS VL: DIQMTQSPSSLSASVGDRVTITCRASGNIHSYLAWYQQKPGKSPKLLVYYAETLADGVPSRFSGSGSGTDYTLTISSLQPEDFATYFCQQFWTTPYTFGQGTKVEIK
63	-29	-31	3.69	2.72	2.4	3.93	–	–	–	–	13A9v4 (antibody, IgG1, V domains shown, humanized variant of 13A9) VH: EVQLVQSGAEVKKPGASVKVSCKASGYAFTNYLIEWVRQAPGQGLEWIGAINPGSGATNYNEKFKDRATLTADKSTNTAYLELSSLRSEDTAVYFCARFLGNYFDNWGQGTLVTVSS VL: DIQMTQSPSSLSASVGDRVTITCRASGNIHSYLAWYQQKPGKSPKLLVYYAETLADGVPSRFSGSGSGTDYTLTISSLQPEDFATYFCQQFWTTPYTFGQGTKVEIK
-35	46	62	3.11	3.2	7.8	6.05	–	–	–	–	15F11v5 (antibody, IgG1, V domains shown, humanized variant of 15F11) VH: EIQLVQSGAEVKKPGSSVKVSCKPSGYAFTSNNIYWVRQAPGQGLEWIGYIDPYIGRIIYNQQFKDRATLTVDKSTSTAYMELSSLRSEDTAVYYCSRSGERSNFDYWGQGTLVTVSS VL: EIVLTQSPATLSLSPGERATLSCSASSSISSNYLHWYQQKPGQAPRLLIYRTSNLASGIPARFSGSGSGTDFTLTISSLEPEDFAVYYCQQGGSLPLTFGQGTKVEIK
59	-14	-8	2.91	2.94	6.62	5.47	–	–	–	–	15F11v6 (antibody, IgG1, V domains shown, humanized variant of 15F11) VH: EIQLVQSGAEVKKPGSSVKVSCKPSGYAFTSNNIYWVRQAPGQGLEWIGYIDPYIGRIIYNQQFKDRATLTVDKSTSTAYMELSSLRSEDTAVYYCSRSGERSNFDYWGQGTLVTVSS VL: EIVLTQSPATLSLSPGERATLSCSASSSISSNYLHWYQQKPGQSPRLLIYRTSNLASGVPARFSGSGSGTDYTLTISSLEPEDFAVYYCQQGGSLPLTFGQGTKVEIK
44	-34	-19	2.58	2.58	5.72	4.75	–	–	–	–	15F11v4 (antibody, IgG1, V domains shown, humanized variant of 15F11) VH: EIQLVQSGAEVKKPGASVKVSCKPSGYAFTSNNIYWVRQAPGQGLEWIGYIDPYIGRIIYNQQFKDRATLTVDKSTSTAYLELSSLRSEDTAVYYCSRSGERSNFDYWGQGTLVTVSS VL: EIVLTQSPATLSLSPGERATLSCSASSSISSNYLHWYQQKPGQSPRLLIYRTSNLASGVPARFSGSGSGTDYTLTISSLEPEDFAVYYCQQGGSLPLTFGQGTKVEIK
